In the supplement of paper PMC5998384:

Key:
HeLa Kyoto [1] = experiment: solubility change mitosis vs G1/S (difference of NP-40 vs SDS log2 ratios) (log2 ratio difference); higher = more soluble in mitosis
HeLa Kyoto [2] = experiment: melting temperature (median over replicates), in situ; higher = more thermally stable
HeLa Kyoto [3] = experiment: solubility in G1/S (NP-40 vs SDS abundance) (log2 ratio); higher = more soluble; settings: cell cycle stage: G1/S
HeLa Kyoto [4] = experiment: thermal stability score vs G1/S (z-score of summed log2 fold changes over temperatures); higher = more thermally stable than in G1/S
[5] = cell cycle stage: early G1 (4.5 h after nocodazole release)
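Throughout, for melting temperature (median over replicates), in situ: HeLa Kyoto cells synchronized by double thymidine or nocodazole block, proteins quantified by TMT10plex mass spectrometry, three independent biological replicates.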
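Throughout, for solubility change mitosis vs G1/S (difference of NP-40 vs SDS log2 ratios): synchronized HeLa Kyoto cells (double thymidine block for G1/S, nocodazole release for mitosis), protein amounts in NP-40 versus SDS lysates quantified by mass spectrometry, three biological replicates.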
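Throughout, for solubility in G1/S (NP-40 vs SDS abundance): HeLa Kyoto cells arrested at G1/S by double thymidine block, proteins quantified by TMT10plex mass spectrometry in mild NP-40 versus SDS extracts, three biological replicates.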
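Throughout, for thermal stability score vs G1/S (z-score of summed log2 fold changes over temperatures): synchronized HeLa Kyoto cells, proteins quantified by TMT10plex mass spectrometry, three biological replicates, mitosis taken 0.5 h after nocodazole release, G1/S directly after double thymidine block.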

Substance | solubility change mitosis (log2) (HeLa Kyoto [1]) | melting temperature (HeLa Kyoto [2]; cell cycle stage: G1/S) [°C] | solubility in G1/S (log2) (HeLa Kyoto [3]) | melting temperature (HeLa Kyoto [2]; cell cycle stage: mitosis) [°C] | thermal stability score (HeLa Kyoto [4]; [5]) | thermal stability score (HeLa Kyoto [4]; cell cycle stage: mitosis)
MKDRLEQLKAKQLTQDDDTDAVEIAIDNTAFMDEFFSEIEETRLNIDKISEHVEEAKKLYSIILSAPIPEPKTKDDLEQLTTEIKKRANNVRNKLKSMEKHIEEDEVRSSADLRIRKSQHSVLSRKFVEVMTKYNEAQVDFRERSKGRIQRQLEITGKKTTDEELEEMLESGNPAIFTSGIIDSQISKQALSEIEGRHKDIVRLESSIKELHDMFMDIAMLVENQGEMLDNIELNVMHTVDHVEKARDETKKAVKYQSQARKKLIIIIVLVVVLLGILALIIGLSVGLN [STX3] | 0.0981 | 53.9 | 0.157 | – | – | –
MSDESASGSDPDLDPDVELEDAEEEEEEEEVAVEECDRDDEEDLLDDPSLEGMCGTEHAQLGEDGQQPPRCTSTTSSQSEPSEQLRRHQGKNLASEDPKKKRAQKPSHMRRNIRKLLREDQLEPVTKAAQQEELERRKRLEQQRKDYAAPIPTVPLEFLPEEIALRASDGPQLPPRVLAQEVICLDSSSGSEDEKSSRDEVIELSSGEEDTLHIVDSSESVSEDDEEEEKGGTHVNDVLNQRDALGRVLVNLNHPPEEENVFLAPQLARAVKPHQIGGIRFLYDNLVESLERFKTSSGFGCILAHSMGLGKTLQVISFIDVLFRHTPAKTVLAIVPVNTLQNWLAEFNMWLPPPEALPADNKPEEVQPRFFKVHILNDEHKTMASRAKVMADWVSEGGVLLMGYEMYRLLTLKKSFATGRPKKTKKRSHPVIIDLDEEDRQQEFRREFEKALCRPGPDVVICDEGHRIKNCQASTSQALKNIRSRRRVVLTGYPLQNNLIEYWCMVDFVRPDFLGTRQEFSNMFERPILNGQCIDSTPQDVRLMRYRSHVLHSLLEGFVQRRGHTVLKIHLPAKEENVILVRLSKIQRDLYTQFMDRFRDCGSSGWLGLNPLKAFCVCCKIWNHPDVLYEALQKESLANEQDLDVEELGSAGTSARCPPQGTKGKGEDSTLASSMGEATNSKFLQGVGFNPFQERGNNIVTYEWAKDLLTNYQTGVLENSPKMVLLFHLIEESVKLGDKILVFSQSLSTLALIEEFLGKREVPCPPGTEGQGAQKWVRNISYFRLDGSTPAFERERLINQFNDPSNLTTWLFLLSTRAGCLGVNLIGANRVVVFDASWNPCHDAQAVCRVYRYGQKKPCYIYRLVADYTLEKKIYDRQISKQGMSDRVVDDLNPMLNFTRKEVENLLHFVEKEPAPQVSLNVKGIKESVLQLACLKYPHLITKEPFEHESLLLNRKDHKLTKAEKKAAKKSYEEDKRTSVPYTRPSYAQYYPASDQSLTSIPAFSQRNWQPTLKGDEKPVASVRPVQSTPIPMMPRHVPLGGSVSSASSTNPSMNFPINYLQRAGVLVQKVVTTTDIVIPGLNSSTDVQARINAGESIHIIRGTKGTYIRTSDGRIFAVRATGKPKVPEDGRMAASGSQGPSCESTSNGRHSASSPKAPDPEGLARPVSPDSPEIISELQQYADVAAARESRQSSPSTNAALPGPPAQLMDSSAVPGTALGTEPRLGGHCLNSSLLVTGQPCGDRHPVLDLRGHKRKLATPPAAQESSRRRSRKGHLPAPVQPYEHGYPVSGGFAMPPVSLNHNLTTPFTSQAGENSLFMGSTPSYYQLSNLLADARLVFPVTTDPLVPAGPVSSSSTATSVTASNPSFMLNPSVPGILPSYSLPFSQPLLSEPRMFAPFPSPVLPSNLSRGMSIYPGYMSPHAGYPAGGLLRSQVPPFDSHEVAEVGFSSNDDEDKDDDVIEVTGK [RAD54L2] | -0.143 | – | -0.0448 | 49.7 | – | –
MRLRVRLLKRTWPLEVPETEPTLGHLRSHLRQSLLCTWGYSSNTRFTITLNYKDPLTGDEETLASYGIVSGDLICLILQDDIPAPNIPSSTDSEHSSLQNNEQPSLATSSNQTSMQDEQPSDSFQGQAAQSGVWNDDSMLGPSQNFEAESIQDNAHMAEGTGFYPSEPMLCSESVEGQVPHSLETLYQSADCSDANDALIVLIHLLMLESGYIPQGTEAKALSMPEKWKLSGVYKLQYMHPLCEGSSATLTCVPLGNLIVVNATLKINNEIRSVKRLQLLPESFICKEKLGENVANIYKDLQKLSRLFKDQLVYPLLAFTRQALNLPDVFGLVVLPLELKLRIFRLLDVRSVLSLSAVCRDLFTASNDPLLWRFLYLRDFRDNTVRVQDTDWKELYRKRHIQRKESPKGRFVMLLPSSTHTIPFYPNPLHPRPFPSSRLPPGIIGGEYDQRPTLPYVGDPISSLIPGPGETPSQFPPLRPRFDPVGPLPGPNPILPGRGGPNDRFPFRPSRGRPTDGRLSFM [FBXO7] | -0.126 | 48.1 | 0.02 | 49.7 | – | –
MADYWKSQPKKFCDYCKCWIADNRPSVEFHERGKNHKENVAKRISEIKQKSLDKAKEEEKASKEFAAMEAAALKAYQEDLKRLGLESEILEPSITPVTSTIPPTSTSNQQKEKKEKKKRKKDPSKGRWVEGITSEGYHYYYDLISGASQWEKPEGFQGDLKKTAVKTVWVEGLSEDGFTYYYNTETGESRWEKPDDFIPHTSDLPSSKVNENSLGTLDESKSSDSHSDSDGEQEAEEGGVSTETEKPKIKFKEKNKNSDGGSDPETQKEKSIQKQNSLGSNEEKSKTLKKSNPYGEWQEIKQEVESHEEVDLELPSTENEYVSTSEADGGGEPKVVFKEKTVTSLGVMADGVAPVFKKRRTENGKSRNLRQRGDDQ [WBP4] | 0.763 | – | -0.703 | 54.7 | – | –
MTTAQRDSLLWKLAGLLRESGDVVLSGCSTLSLLTPTLQQLNHVFELHLGPWGPGQTGFVALPSHPADSPVILQLQFLFDVLQKTLSLKLVHVAGPGPTGPIKIFPFKSLRHLELRGVPLHCLHGLRGIYSQLETLICSRSLQALEELLSACGGDFCSALPWLALLSANFSYNALTALDSSLRLLSALRFLNLSHNQVQDCQGFLMDLCELHHLDISYNRLHLVPRMGPSGAALGVLILRGNELRSLHGLEQLRNLRHLDLAYNLLEGHRELSPLWLLAELRKLYLEGNPLWFHPEHRAATAQYLSPRARDAATGFLLDGKVLSLTDFQTHTSLGLSPMGPPLPWPVGSTPETSGGPDLSDSLSSGGVVTQPLLHKVKSRVRVRRASISEPSDTDPEPRTLNPSPAGWFVQQHPELELMSSFRERFGRNWLQYRSHLEPSGNPLPATPTTSAPSAPPASSQGPDTAPRPSPPQEEARGPQESPQKMSEEVRAEPQEEEEEKEGKEEKEEGEMVEQGEEEAGEEEEEEQDQKEVEAELCRPLLVCPLEGPEGVRGRECFLRVTSAHLFEVELQAARTLERLELQSLEAAEIEPEAQAQRSPRPTGSDLLPGAPILSLRFSYICPDRQLRRYLVLEPDAHAAVQELLAVLTPVTNVAREQLGEARDLLLGRFQCLRCGHEFKPEEPRMGLDSEEGWRPLFQKTESPAVCPNCGSDHVVLLAVSRGTPNRERKQGEQSLAPSPSASPVCHPPGHGDHLDRAKNSPPQAPSTRDHGSWSLSPPPERCGLRSVDHRLRLFLDVEVFSDAQEEFQCCLKVPVALAGHTGEFMCLVVVSDRRLYLLKVTGEMREPPASWLQLTLAVPLQDLSGIELGLAGQSLRLEWAAGAGRCVLLPRDARHCRAFLEELLDVLQSLPPAWRNCVSATEEEVTPQHRLWPLLEKDSSLEARQFFYLRAFLVEGPSTCLVSLLLTPSTLFLLDEDAAGSPAEPSPPAASGEASEKVPPSGPGPAVRVREQQPLSSLSSVLLYRSAPEDLRLLFYDEVSRLESFWALRVVCQEQLTALLAWIREPWEELFSIGLRTVIQEALALDR [STK11IP] | -0.0941 | – | -0.0528 | – | -0.272 | -1.04
MVQKYQSPVRVYKYPFELIMAAYERRFPTCPLIPMFVGSDTVNEFKSEDGAIHVIERRCKLDVDAPRLLKKIAGVDYVYFVQKNSLNSRERTLHIEAYNETFSNRVIINEHCCYTVHPENEDWTCFEQSASLDIKSFFGFESTVEKIAMKQYTSNIKKGKEIIEYYLRQLEEEGITFVPRWSPPSITTSSETSSSSSKKQAASMAVVIPEAALKEGLSGDALSSPSAPEPVVGTPDDKLDADYIKRYLGDLTPLQESCLIRLRQWLQETHKGKIPKDEHILRFLRARDFNIDKAREIMCQSLTWRKQHQVDYILETWTPPQVLQDYYAGGWHHHDKDGRPLYVLRLGQMDTKGLVRALGEEALLRYVLSINEEGLRRCEENTKVFGRPISSWTCLVDLEGLNMRHLWRPGVKALLRIIEVVEANYPETLGRLLILRAPRVFPVLWTLVSPFIDDNTRRKFLIYAGNDYQGPGGLLDYIDKEIIPDFLSGECMCEVPEGGLVPKSLYRTAEELENEDLKLWTETIYQSASVFKGAPHEILIQIVDASSVITWDFDVCKGDIVFNIYHSKRSPQPPKKDSLGAHSITSPGGNNVQLIDKVWQLGRDYSMVESPLICKEGESVQGSHVTRWPGFYILQWKFHSMPACAASSLPRVDDVLASLQVSSHKCKVMYYTEVIGSEDFRGSMTSLESSHSGFSQLSAATTSSSQSHSSSMISR [SEC14L1] | -0.126 | – | -0.0916 | – | -0.528 | 0.106
DISP1 | -0.159 | – | 0.0363 | – | -0.198 | 0.756
